We go through 1 molecule from patent publication US6555347 (University of California, dated 2003).

The target in this assay is T1, lexA-bicoid (UniProt P09081 2-160).
T1 construct: also called nonspecific bait; not shown: LexA part of the two-hybrid bait
T1 sequence (looked up): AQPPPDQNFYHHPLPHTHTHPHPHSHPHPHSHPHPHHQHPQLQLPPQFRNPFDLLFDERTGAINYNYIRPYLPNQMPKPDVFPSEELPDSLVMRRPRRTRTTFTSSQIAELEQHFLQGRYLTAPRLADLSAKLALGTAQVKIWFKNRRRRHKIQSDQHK
The experiment in a line: yeast two-hybrid (interaction trap), retransformation with control bait. The text has this: The human minor vault protein p193 amino acid sequence and the nucleotide sequence encoding human minor vault protein p193 were elucidated as follows. First, human vault protein p193 was cloned using an interaction trap, two-hybrid system according to techniques known to those with skill in the art. See, for example, Golemis, et al., *Current Protocols in Mol. Biol.* 20.1.1–20.35 John Willey & Sons, 1997, incorporated by reference in its entirety. In summary, rat major vault protein, GenBank accession number U09870, having the 67 amino acids at the amino-terminal truncated was used as bait against a HeLa acid fusion cDNA library obtained from Roger Brent, Boston, Mass., USA to search for proteins that interacted with rat major vault protein. The interacting proteins were identified by their ability to give rise to blue colonies on media containing galactose and X-gal, a color indicator substrate. The specificity of the interaction between the identified proteins and the rat major vault protein was verified by retransformation of the identified proteins with specific, rat major vault protein and nonspecific (lexA-bicoid) bait cDNAs. This technique identified the cDNA encoding the 193 kDa minor vault protein, SEQ ID NO: 1, by its interaction with the rat major vault protein.

B1: human minor vault protein p193 (other)
chain: VCTQHWQDAVPWTELLSLQTEDGFWKLTPELGLILNLNTNGLHSFLKQKGIQSLGVKGRECLLDLIATMLVLQFIRTRLEKEGIVFKSLMKMDDPSISRNIPWAFEAIKQASEWVRRTEGQYPSICPRLELGNDWDSATKQLLGLQPISTVSPLHRVLHYSQG
notes: In the two-hybrid screen, p193 was a clone from a HeLa acid fusion cDNA library; In the western blots, immunofluorescence and immunoprecipitation, the form of p193 is not described; also called 193 kDa minor vault protein; human vault protein p193
On to B1, for which the binding result is “no binding”.
